# Data: patent US20200283508A1 (TEXAS A AND M UNIVERSITY SYSTEM, published 2020)
# T1: Efb-N30-105 (Staphylococcus aureus strain Newman, UniProt A6QG59 30-105)
# T1 sequence: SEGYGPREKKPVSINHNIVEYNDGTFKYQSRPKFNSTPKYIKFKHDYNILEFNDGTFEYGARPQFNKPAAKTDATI
# T2: Coa-R0474-505 (recombinant protein) (Staphylococcus aureus strain Newman)
# T2 chain: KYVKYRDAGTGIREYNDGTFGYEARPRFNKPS
# Assays:
# BSA = target: T3, BSA (bovine, UniProt P02769 25-607); test: solid-phase binding assay (FIG. 24)
# T3 construct: also called bovine serum albumin
# T3 sequence (P02769 25-607 limits assumed): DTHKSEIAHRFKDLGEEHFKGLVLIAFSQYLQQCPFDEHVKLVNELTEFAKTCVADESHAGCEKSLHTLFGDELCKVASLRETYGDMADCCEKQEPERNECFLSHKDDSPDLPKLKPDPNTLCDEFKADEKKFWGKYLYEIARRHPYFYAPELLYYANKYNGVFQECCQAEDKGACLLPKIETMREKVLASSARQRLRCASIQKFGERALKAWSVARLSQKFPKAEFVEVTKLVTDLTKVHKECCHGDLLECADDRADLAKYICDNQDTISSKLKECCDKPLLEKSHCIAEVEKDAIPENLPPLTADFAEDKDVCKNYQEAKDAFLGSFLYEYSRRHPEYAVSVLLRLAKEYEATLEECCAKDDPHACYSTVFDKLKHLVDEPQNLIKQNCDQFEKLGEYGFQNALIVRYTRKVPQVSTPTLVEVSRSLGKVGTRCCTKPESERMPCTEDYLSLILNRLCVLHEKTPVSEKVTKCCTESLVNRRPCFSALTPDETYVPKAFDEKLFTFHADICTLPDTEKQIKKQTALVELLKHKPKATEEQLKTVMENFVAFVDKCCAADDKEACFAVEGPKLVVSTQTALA
# Efb-A30-67 = Efb-A30-67 (Staphylococcus aureus strain Newman, UniProt P08515 1-218 = GST; A6QG59 30-67); test: solid-phase binding assay, titration (FIG. 24)
# Efb-N30-105 = target: T1, Efb-N30-105; test: solid-phase binding assay, titration (FIG. 24)
# [1] = target: recombinant Efb-O (Efb 68-98) (Staphylococcus aureus strain Newman, UniProt P08515 1-218 = GST); test: solid-phase binding assay, titration (FIG. 24)
# Coa-R (Coa 506-636) [2] = target: T4, Coa-R (Coa 506-636) (Staphylococcus aureus strain Newman); test: blocking ELISA: scFv-Fc pre-incubated with 10 nM CoaR, residual binding to coated Fg (blocked ligand: Fg)
# Coa-C (Coa 311-636) [3] = target: T5, Coa-C (Coa 311-636) (Staphylococcus aureus strain Newman, UniProt P08515 1-218 = GST)
# Coa-R (Coa 506-636) [4] = target: T4, Coa-R (Coa 506-636)
# [5] = target: T6, synthetic peptide Coa-RI (Coa 506-532) (Staphylococcus aureus strain Newman); test: peptide inhibition ELISA; appreciable inhibition only above 100 µM peptide
# T6 construct: also called sCoa-RI
# Coa-C (Coa 311-636) [6] = target: T5, Coa-C (Coa 311-636); test: apparent Kd from half-maximal binding in ELISA (GraphPad Prism)
# Procedure: As well, binding was tested against Coa fragments, namely Coa-C₃₁₁₋₆₃₆, Coa-F₃₁₁₋₅₀₅, Coa-R0₄₇₄₋₅₀₅ and Coa-R₅₀₆₋₆₃₆. Recombinant proteins Efb-N₃₀₋₁₀₅, Efb-A₃₀₋₆₇, Efb-O₆₈₋₉₈, Coa-C₃₁₁₋₆₃₆, Coa-F₃₁₁₋₅₀₅, Coa-R0₄₇₄₋₅₀₅ and Coa-R₅₀₆₋₆₃₆ were diluted in 50 mM sodium carbonate pH 9.6 and immobilized at the concentration of 200 ng/well for 1 hour at room temperature. Immobilized proteins were probed for recognition in a solid-phase binding assay with different quantities of LIG40 antibodies after blocking and washing. After washing, varying concentrations of LIG40 scFv-Fc antibodies were diluted in 2% BSA+1×PBS+0.05% Tween-20 and incubated with the immobilized proteins for 1 hour at room temperature with shaking at 250 rpm. Bound scFv-Fcs were detected using polyclonal α-human IgG HRP-conjugated Ab diluted to 1:10000 in 2% BSA+1×PBS+0.05% Tween-20. HRP-conjugated Ab was incubated for 1 hour at room temperature with shaking at 250 rpm. HRP signal was developed with Sigma FAST-OPD using manufacturers guidelines.
# [7] = target: T2, Coa-R0474-505 (recombinant protein); test: solid-phase binding assay, titration (FIG. 24); ND in FIG. 27
binder,measurement,setting,value
"LIG40-A11 (scFv, V domains shown, also called anti-CoaR scFv-Fc antibody) VH: QVQLVESGGVVVQPGGSLRLSCAASGFTFDDYAMHWVRQAPGKGLEWVSLISWDGGSTYYADSVKGRFTISRDNSKNSLYLQMNSLRAEDTALYYCVAARRGMDVWGQGTTVTVSS VL: KIVLTQSPLSLPVTPGEPASISCRSSQSLLYSNGNNYLDWYLQKPGQSPQLLIYLGSNRAPGVPDRFSGSGSGTDFTLRISRVEAEDVGVYYCMQGRQPPFTFGPGTKVDIK",binding result,BSA,no binding
same,binding result,Efb-A30-67,no binding
same,binding result,Efb-N30-105,no binding
same,binding result,[1],no binding
same,IC50 (read off the curve),Coa-R (Coa 506-636) [2],~3 µg/mL
same,EC50 (read off the curve),Coa-C (Coa 311-636) [3],~0.02 µg/mL
same,EC50 (read off the curve),Coa-R (Coa 506-636) [4],~0.008 µg/mL
same,binding result,[5],binds
same,Kd,Coa-C (Coa 311-636) [6],0.133 nM
same,binding result,[7],no binding
